Ends that are not written are not given here.
Tests used:
Assay in all cases: fluorescence polarisation
[1] = biological target: Rabbit skeletal muscle actin (unlabeled actin monomers) (rabbit) (UniProt P68135)
[2] = biological target: profilin-1 E117G (ALS-associated variant) (UniProt P07737 1-140, E117G)
[3] = biological target: profilin-1 C71G (ALS-associated variant) (UniProt P07737 1-140, C71G)
profilin-1 (wild-type) = profilin-1 (wild-type) (UniProt P07737 1-140)
[4] = biological target: profilin-1 M114T (ALS-associated variant) (UniProt P07737 1-140, M114T)
Chain of profilin-1 M114T (ALS-associated variant) (P07737 whole entry M114T): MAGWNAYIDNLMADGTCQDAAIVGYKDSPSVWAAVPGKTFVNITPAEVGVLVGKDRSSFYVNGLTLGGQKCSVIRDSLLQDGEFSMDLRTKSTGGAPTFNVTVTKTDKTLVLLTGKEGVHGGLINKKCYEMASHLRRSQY

[5] = biological target: profilin-1 R136W (ALS-associated variant) (UniProt P07737 1-140, R136W)
Chain of profilin-1 R136W (ALS-associated variant) (P07737 whole entry R136W): as the sequence (P07737 whole entry M114T) above, with T114M, R136W counted along it

[6] = biological target: profilin-1 H120E (actin-binding impaired control) (UniProt P07737 1-140, H120E)
Chain of profilin-1 H120E (actin-binding impaired control) (P07737 whole entry H120E): as the sequence (P07737 whole entry M114T) above, with T114M, H120E counted along it

[7] = biological target: profilin-1 A20T (ALS-associated variant) (UniProt P07737 1-140, A20T)
Chain of profilin-1 A20T (ALS-associated variant) (P07737 whole entry A20T): as the sequence (P07737 whole entry M114T) above, with A20T, T114M counted along it

[8] = biological target: profilin-1 Q139L (ALS-associated variant) (UniProt P07737 1-140, Q139L)
Chain of profilin-1 Q139L (ALS-associated variant) (P07737 whole entry Q139L): as the sequence (P07737 whole entry M114T) above, with T114M, Q139L counted along it

[9] = biological target: profilin-1 G118V (ALS-associated variant) (UniProt P07737 1-140, G118V)
Chain of profilin-1 G118V (ALS-associated variant) (P07737 whole entry G118V): as the sequence (P07737 whole entry M114T) above, with T114M, G118V counted along it

[10] = biological target: profilin-1 T109M (ALS-associated variant) (UniProt P07737 1-140, T109M)
Chain of profilin-1 T109M (ALS-associated variant) (P07737 whole entry T109M): as the sequence (P07737 whole entry M114T) above, with T109M, T114M counted along it

Chain of profilin-1 C71G (ALS-associated variant) (P07737 whole entry C71G): as the sequence (P07737 whole entry M114T) above, with C71G, T114M counted along it
Chain of profilin-1 E117G (ALS-associated variant) (P07737 whole entry E117G): as the sequence (P07737 whole entry M114T) above, with T114M, E117G counted along it
Chain of profilin-1 (wild-type) (from UniProt P07737 1-140) (natural protein; other documents disagree on this pair) (P07737 whole entry): as the sequence (P07737 whole entry M114T) above, with T114M counted along it
Chain of profilin-1 (wild-type) (UniProt P07737 1-140) (P07737 whole entry): as the sequence (P07737 whole entry M114T) above, with T114M counted along it

Molecule	Kd [1]	binding result [2]	binding result [3]	Kd (profilin-1 (wild-type))	Kd [4]	binding result [5]	binding result [6]	Kd [7]	Kd [8]	Kd [9]	binding result [10]
profilin-1 R88E (actin-binding impaired control) (from UniProt P07737 1-140) (natural protein)	3720 nM	–	–	–	–	–	–	–	–	–	–
profilin-1 (wild-type) (from UniProt P07737 1-140) (natural protein; other documents disagree on this pair)	99.6 nM	–	–	–	–	–	–	–	–	–	–
IPPPPPLPGVASIPPPPPLPG (also: FITC, position not given here) [FITC-mDia1-derived poly-L-proline (PLP) peptide]	–	binds	binds	2710 nM	2040 nM	binds	binds	1650 nM	3470 nM	2090 nM	binds
